Publication PMC8945367, “Transcription Regulation of Tceal7 by the Triple Complex of Mef2c, Creb1 and Myod” (Biology, 2022)

Target: 3×HA-Creb1 (UniProt Q01147-2 1-327)
Assay: cell-based or functional assay

Sequence of 3×HA-Creb1 (Q01147 whole entry): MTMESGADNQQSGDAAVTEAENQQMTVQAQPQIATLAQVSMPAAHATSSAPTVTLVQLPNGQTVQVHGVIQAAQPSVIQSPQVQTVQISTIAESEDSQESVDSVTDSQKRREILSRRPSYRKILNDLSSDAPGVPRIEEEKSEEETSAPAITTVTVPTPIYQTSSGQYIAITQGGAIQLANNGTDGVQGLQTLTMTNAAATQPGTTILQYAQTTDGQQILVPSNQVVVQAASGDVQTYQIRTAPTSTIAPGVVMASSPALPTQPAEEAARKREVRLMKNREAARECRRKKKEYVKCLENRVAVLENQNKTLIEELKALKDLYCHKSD

- transactivation of Reporter II (4×(Mef2#3–CRE#3–E#4) luciferase) by Mef2c and Creb1 together in HEK293T cells; 2.8-fold by Mef2c and 3.7-fold by Creb1 alone: 8.3 fold
B1: 6×Myc-Mef2c (natural protein)
chain: not shown
